How the values were obtained:
[1] = target: T1, mutant Huntingtin exon 1 (mHttQ51) (Homo sapiens, UniProt P42858, INS38QQQQQQQQQQQQQQQQQQQQQQQQQQQQQQQ); assay: In vitro filter trap aggregation assay of mutant Huntingtin exon 1; type: biochemical; details: 5× or 10× molar excess of peptides
T1 construct: mutant Huntingtin exon 1 containing a pathogenic stretch of 51 glutamines (mHttQ51); GST (N, cleaved yes); made in house; host or cells: E. coli Rosetta 2(DE3) pLysS
Method: Mutant Huntingtin and PolyQ51 aggregation reactions were performed at concentration 3 μM of mHttQ51, 0.044 Units/μl acTEV protease (Invitrogen, Carlsbad, CA, USA), and respective concentrations of Ovalbumin (Sigma) or purified NAC chaperone variants. Aggregation was conducted in TEV reaction buffer (Invitrogen) and incubated at 30° C. AtxQ78 was buffer exchanged into TEV reaction buffer using 7K MWCO Zeba Spin Desalting Columns (Thermo Fisher) to initiate aggregation. AtxQ78 aggregation reactions were performed at 30 μM of Ataxin-3 in reaction buffer (20 mM sodium phosphate pH 7.5, 25 mM NaCl, 6 mM MgCl2, 2 mM DTT, 5% (v/v) glycerol) and incubated at 37° C. Samples at varied time-points were then taken and combined in a 1:1 ratio with a 4% (w/v) SDS, 100 mM DTT solution, boiled for 5 min at 95° C., and stored at −20° C. Samples were then filtered through a 0.22 μm cellulose acetate membrane (Whatman) and washed with 0.1% (w/v) SDS. Membrane was probed using an S-tag antibody (Abcam) for mHttQ51 and PolyQ51, and with a His-tag antibody (Abcam) for AtxQ78.

[2] = system: yeast model systems and tissue culture cells; assay: Neurotoxicity associated with Huntington's Disease in yeast model systems and tissue culture cells; type: cell-based; details: elevated levels of the subunit

T1 sequence (P42858 with tags, fused parts or gaps with the stated changes limits assumed): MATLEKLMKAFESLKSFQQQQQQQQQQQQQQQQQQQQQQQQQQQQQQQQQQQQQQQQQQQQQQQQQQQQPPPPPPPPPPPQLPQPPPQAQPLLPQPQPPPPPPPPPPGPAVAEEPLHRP

Row | Substance | mHttQ51 aggregation [1] | neurotoxicity associated with Huntington's Disease [2]
1 | C. elegans N-βNAC peptide: synthetic peptide corresponding to the N-terminal region of C. elegans βNAC (SEQ ID NO:1) (MDSKAIAERIKKLQAQQEHVRIGGKGTPRRKKKVIHKTAA) | sufficient to suppress aggregation of mHttQ51 | 
2 | full length CCT1 subunit: single subunit of the TRiC/CCT chaperonin complex |  | suppress neurotoxicity
